Assay results taken from US20040142357A1 (BETH ISRAEL DEACONESS MEDICAL CENTER, published 2004).

Assays:
[1] = target: telomerase of HT1080 cells (telomerase-containing fraction, or cellular telomerase in stable HT1080 lines) (human, UniProt O14746 1-1132, limits assumed); test: cell-based or functional assay
[2] = target: T1, GST (glutathione-S-transferase alone, on glutathione beads) (UniProt P08515 1-218 = GST); test: GST pulldown from HeLa lysates, immunoblot with anti-HA
T1 construct: Control protein; also called GST tag
Procedure: GST pulldown, immunoprecipitation and immunoblotting analysis were performed as described (Lu et al., 1999; Shen et al., 1998). Briefly, relevant proteins were expressed in HeLa or HT1080 cells by transient transfection, or translated in vitro using the TNT coupled transcription/translation kit (Promega) in the presence of [³⁵S]-Met, followed by lysis or dilution in a buffer containing 50 mM HEPES, pH 7.5, 150 mM NaCl, 100 mM NaF, 1 mM sodium orthovanadate, 10% glycerol, 1% Triton X100, 10 μg/ml aprotinin, 10 μg/ml leupeptin, 50 μg/ml phenylmethylsulfonyl fluoride and 1 mM DTT. The cellular supernatants were incubated with 1 μM GST or GST fusion proteins for 1 hr at 4° C. and 15 μl of glutathione agarose beads were then added, followed by further incubation for 2 h at 4° C. The precipitated proteins were washed 4 times in the same buffer and subjected to immunoblotting analysis. Other antibodies used for immunoprecipitation and immunoblotting analysis include anti-Pin2/TRF1 (Shen et al., 1997) and anti-hTERT antibodies (Novus). Membranes containing RNAs isolated from different human tissues (Clontech) were hybridized to the C-terminal coding sequence of PinX1 and then stripped, followed by reprobing with the house-keeping gene GAPDH for loading control. […]

[3] = target: T1, GST (glutathione-S-transferase alone, …); test: GST pulldown from HeLa lysates, immunoblot with anti-GFP
Procedure: (§1) GST pulldown, immunoprecipitation and immunoblotting analysis were performed as described (Lu et al., 1999; Shen et al., 1998). Briefly, relevant proteins were expressed in HeLa or HT1080 cells by transient transfection, or translated in vitro using the TNT coupled transcription/translation kit (Promega) in the presence of [³⁵S]-Met, followed by lysis or dilution in a buffer containing 50 mM HEPES, pH 7.5, 150 mM NaCl, 100 mM NaF, 1 mM sodium orthovanadate, 10% glycerol, 1% Triton X100, 10 μg/ml aprotinin, 10 μg/ml leupeptin, 50 μg/ml phenylmethylsulfonyl fluoride and 1 mM DTT. The cellular supernatants were incubated with 1 μM GST or GST fusion proteins for 1 hr at 4° C. and 15 μl of glutathione agarose beads were then added, followed by further incubation for 2 h at 4° C. The precipitated proteins were washed 4 times in the same buffer and subjected to immunoblotting analysis. Other antibodies used for immunoprecipitation and immunoblotting analysis include anti-Pin2/TRF1 (Shen et al., 1997) and anti-hTERT antibodies (Novus). Membranes containing RNAs isolated from different human tissues (Clontech) were hybridized to the C-terminal coding sequence of PinX1 and then stripped, followed by reprobing with the house-keeping gene GAPDH for loading control.
(§2) To map the region in PinX1 that interacts with Pin2, we expressed different PinX1 fragments in HeLa cells as GFP fusion proteins (FIG. 3E), and then subjected them to GST pulldown experiments with GST-Pin2.

[4] = target: T2, GST-Pin2 (human, UniProt P54274 2-439); test: as above
T2 construct: Produced as described in Shen et al., 1997; also called GST-Pin2 beads (Pin2); not shown: glutathione-S-transferase (GST) tag
T2 sequence: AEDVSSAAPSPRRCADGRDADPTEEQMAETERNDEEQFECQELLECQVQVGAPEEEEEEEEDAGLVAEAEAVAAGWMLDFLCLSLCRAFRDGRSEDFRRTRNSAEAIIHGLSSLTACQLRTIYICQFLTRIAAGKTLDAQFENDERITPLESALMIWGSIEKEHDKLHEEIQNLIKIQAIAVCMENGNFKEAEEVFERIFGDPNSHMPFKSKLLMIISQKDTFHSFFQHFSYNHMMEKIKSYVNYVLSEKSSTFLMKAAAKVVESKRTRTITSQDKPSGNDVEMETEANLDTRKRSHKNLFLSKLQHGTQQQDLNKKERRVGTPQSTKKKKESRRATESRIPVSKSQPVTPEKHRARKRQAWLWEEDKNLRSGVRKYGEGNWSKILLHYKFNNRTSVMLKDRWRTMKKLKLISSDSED
Procedure: as §1, §2

telomerase of HT1080 cells (telomerase-containing fraction, or cellular telomerase in stable HT1080 lines), sequence (O14746 whole entry): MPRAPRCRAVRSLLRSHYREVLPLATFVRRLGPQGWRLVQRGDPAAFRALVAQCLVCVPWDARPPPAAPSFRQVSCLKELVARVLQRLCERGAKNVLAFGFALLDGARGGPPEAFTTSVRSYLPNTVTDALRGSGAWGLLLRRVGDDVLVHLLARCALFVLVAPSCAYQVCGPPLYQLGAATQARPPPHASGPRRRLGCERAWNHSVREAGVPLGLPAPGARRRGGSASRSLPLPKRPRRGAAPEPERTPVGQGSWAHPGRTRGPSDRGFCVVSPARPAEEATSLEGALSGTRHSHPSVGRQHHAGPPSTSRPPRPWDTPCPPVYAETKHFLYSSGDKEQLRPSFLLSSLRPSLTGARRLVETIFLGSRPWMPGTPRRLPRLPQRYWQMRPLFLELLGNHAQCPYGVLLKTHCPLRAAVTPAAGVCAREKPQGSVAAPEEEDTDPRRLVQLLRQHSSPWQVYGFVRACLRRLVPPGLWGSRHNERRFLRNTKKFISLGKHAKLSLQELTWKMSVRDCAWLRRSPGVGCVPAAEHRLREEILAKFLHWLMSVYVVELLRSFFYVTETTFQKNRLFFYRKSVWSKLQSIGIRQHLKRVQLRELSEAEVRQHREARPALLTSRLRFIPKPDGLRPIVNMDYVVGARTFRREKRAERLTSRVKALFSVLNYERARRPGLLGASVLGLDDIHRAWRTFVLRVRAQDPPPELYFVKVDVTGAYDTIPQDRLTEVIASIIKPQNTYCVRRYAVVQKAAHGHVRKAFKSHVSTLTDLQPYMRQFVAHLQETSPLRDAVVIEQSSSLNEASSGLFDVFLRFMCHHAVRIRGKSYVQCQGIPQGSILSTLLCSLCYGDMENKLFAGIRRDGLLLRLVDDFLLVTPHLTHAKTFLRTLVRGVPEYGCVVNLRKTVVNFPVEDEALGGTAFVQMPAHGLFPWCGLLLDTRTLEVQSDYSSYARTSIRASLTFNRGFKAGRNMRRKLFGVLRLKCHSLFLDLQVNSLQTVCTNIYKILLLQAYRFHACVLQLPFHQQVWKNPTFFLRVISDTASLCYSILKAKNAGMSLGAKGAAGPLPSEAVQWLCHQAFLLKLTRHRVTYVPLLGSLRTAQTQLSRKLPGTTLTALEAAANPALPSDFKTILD
T1 sequence (P08515 whole entry): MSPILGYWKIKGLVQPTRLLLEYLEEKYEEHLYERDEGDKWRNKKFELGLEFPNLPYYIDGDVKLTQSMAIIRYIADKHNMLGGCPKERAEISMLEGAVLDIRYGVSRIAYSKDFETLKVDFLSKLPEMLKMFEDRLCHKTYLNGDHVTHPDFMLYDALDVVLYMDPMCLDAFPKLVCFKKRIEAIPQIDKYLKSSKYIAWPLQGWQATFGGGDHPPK

B1: GST-PinX1 (N-terminal GST fusion of full length PinX1) (other, not shown: a dimerising Fc or GST)
chain: MSMLAERRRKQKWAVDPQNTAWSNDDSKFGQRMLEKMGWSKGKGLGAQEQGATDHIKVQVKNNHLGLGATINNEDNWIAHQDDFNQLLAELNTCHGQETTDSSDKKEKKSFSLEEKSKISKNRVHYMKFTKGKDLSSRSKTDLDCIFGKRQSKKTPEGDASPSTPEENETTTTSAFTIQEYFAKPVAALKNKPQVPVPGSDISETQVERKRGKKRNKEATGKDVESYLQPKAKRHTEGKPERAEAQERVAKKKCAPAEKQLRGPCWDQSSKASAQDAGDHVQPPEGRDFTLKPKKRRGKKKLQKPVEIAEDATLEETLVKKKKKKDSK
Question: How did the “IC50 of inhibition of telomerase activity in vitro (TRAP assay)” value [1] turn out when B1 was run?
Answer: ~50 nM

B2: GST-PinX1-C (GST fusion of the C-terminal 74 amino acid fragment of PinX1, the telomerase inhibitory domain TID) (other, not shown: a dimerising Fc or GST)
chain: CAPAEKQLRGPCWDQSSKASAQDAGDHVQPPEGRDFTLKPKKRRGKKKLQKPVEIAEDATLEETLVKKKKKKDSK
Question: With B2 as the binder, how does the “IC50 of inhibition of telomerase activity in vitro (TRAP assay)” value [1] read?
Answer: ~50 nM

B3: HA-PinX1 (PinX1 with an N-terminal HA epitope tag) (other, not shown: small tags and cut ends)
chain: MSMLAERRRKQKWAVDPQNTAWSNDDSKFGQRMLEKMGWSKGKGLGAQEQGATDHIKVQVKNNHLGLGATINNEDNWIAHQDDFNQLLAELNTCHGQETTDSSDKKEKKSFSLEEKSKISKNRVHYMKFTKGKDLSSRSKTDLDCIFGKRQSKKTPEGDASPSTPEENETTTTSAFTIQEYFAKPVAALKNKPQVPVPGSDISETQVERKRGKKRNKEATGKDVESYLQPKAKRHTEGKPERAEAQERVAKKKCAPAEKQLRGPCWDQSSKASAQDAGDHVQPPEGRDFTLKPKKRRGKKKLQKPVEIAEDATLEETLVKKKKKKDSK
notes: Expressed in HeLa or HT1080 cells; also called transfected PinX1 protein; 50 kDa HA-PinX1 protein
Question: Does B3 bind [2]?
Answer: no binding (tested: 1 µM)

Question: And the “fold decrease in telomerase activity in stable HT1080 cells (TRAP assay)” value [1]?
Answer: ~5 fold

B4: GFP fusion of the N-terminal 142 amino acid fragment of PinX1 (other)
chain: MSMLAERRRKQKWAVDPQNTAWSNDDSKFGQRMLEKMGWSKGKGLGAQEQGATDHIKVQVKNNHLGLGATINNEDNWIAHQDDFNQLLAELNTCHGQETTDSSDKKEKKSFSLEEKSKISKNRVHYMKFTKGKDLSSRSKTD
notes: Expressed in HeLa cells; also called GFP-PinX1-N; PinX1-N; not shown: GFP fusion partner
Question: Which results are given for B4?
Answer: binding result [3]: no binding (tested: 1 µM); binding result [4]: no binding (tested: 1 µM)

B5: GFP-PinX1 (full length PinX1 as a GFP fusion protein) (other)
chain: MSMLAERRRKQKWAVDPQNTAWSNDDSKFGQRMLEKMGWSKGKGLGAQEQGATDHIKVQVKNNHLGLGATINNEDNWIAHQDDFNQLLAELNTCHGQETTDSSDKKEKKSFSLEEKSKISKNRVHYMKFTKGKDLSSRSKTDLDCIFGKRQSKKTPEGDASPSTPEENETTTTSAFTIQEYFAKPVAALKNKPQVPVPGSDISETQVERKRGKKRNKEATGKDVESYLQPKAKRHTEGKPERAEAQERVAKKKCAPAEKQLRGPCWDQSSKASAQDAGDHVQPPEGRDFTLKPKKRRGKKKLQKPVEIAEDATLEETLVKKKKKKDSK
notes: Expressed in HeLa cells; not shown: GFP fusion partner
Question: Does B5 bind [3]?
Answer: no binding (tested: 1 µM)

B6: GFP fusion of the PinX1 C-terminal 142-328 amino acid fragment (other)
chain: DLDCIFGKRQSKKTPEGDASPSTPEENETTTTSAFTIQEYFAKPVAALKNKPQVPVPGSDISETQVERKRGKKRNKEATGKDVESYLQPKAKRHTEGKPERAEAQERVAKKKCAPAEKQLRGPCWDQSSKASAQDAGDHVQPPEGRDFTLKPKKRRGKKKLQKPVEIAEDATLEETLVKKKKKKDSK
notes: as for B5
Question: Does B6 bind [3]?
Answer: no binding (tested: 1 µM)

B7: GFP fusion of the PinX1 254-328 amino acid fragment (other)
chain: CAPAEKQLRGPCWDQSSKASAQDAGDHVQPPEGRDFTLKPKKRRGKKKLQKPVEIAEDATLEETLVKKKKKKDSK
notes: Expressed in HeLa cells; also called GFP-PinX1-C; C-terminal 74 amino acid fragment; not shown: GFP fusion partner
Question: Does B7 bind [3]?
Answer: no binding (tested: 1 µM)
